In publication PMC4281115, “pH-Dependent Conformational Changes in the HCV NS3 Protein Modulate Its ATPase and Helicase Activities”:

Assays:
[1] = target: T1, NS3hel (NS3 helicase domain) (Hepatitis C virus genotype 1b …, UniProt Q9WMX2 1193-1657); experiment: fluorescence anisotropy; pH 6.4, 2 mM MgCl2; 25 mM MOPS-NaOH pH 6.4 or 7.2, 2 mM MgCl2, 25 C; 25 nM 5-FAM-dT20 with 0-10 uM NS3hel or 0-5 uM NS3FL, 10 min (anisotropy); 1 uM protein with 0-1 uM ssDNA (Trp); settings: protein: recombinant; tags: N-terminal 6xHis-TEV, cleaved; label: 5'-carboxyfluorescein (5-FAM); single strand
T1 sequence (Q9WMX2 1193-1657): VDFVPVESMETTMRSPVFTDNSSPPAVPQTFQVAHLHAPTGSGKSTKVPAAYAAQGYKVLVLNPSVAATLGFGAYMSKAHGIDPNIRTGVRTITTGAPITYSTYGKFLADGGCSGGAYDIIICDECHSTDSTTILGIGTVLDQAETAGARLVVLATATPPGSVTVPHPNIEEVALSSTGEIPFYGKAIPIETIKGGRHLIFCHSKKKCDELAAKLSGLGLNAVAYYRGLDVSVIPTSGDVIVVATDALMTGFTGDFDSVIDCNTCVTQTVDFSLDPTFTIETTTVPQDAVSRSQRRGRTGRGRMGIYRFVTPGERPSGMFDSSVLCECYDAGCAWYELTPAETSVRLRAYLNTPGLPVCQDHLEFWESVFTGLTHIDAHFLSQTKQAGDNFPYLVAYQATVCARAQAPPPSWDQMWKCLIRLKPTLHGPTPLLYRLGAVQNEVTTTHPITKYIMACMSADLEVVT

NS3FL (full-length NS3) [2] = target: T2, NS3FL (full-length NS3) (Hepatitis C virus genotype 1b …, UniProt Q9WMX2 1027-1657); experiment: as above; settings: protein: recombinant; tags: C-terminal 6xHis; label: 5'-carboxyfluorescein (5-FAM); single strand
T2 sequence (Q9WMX2 1027-1657): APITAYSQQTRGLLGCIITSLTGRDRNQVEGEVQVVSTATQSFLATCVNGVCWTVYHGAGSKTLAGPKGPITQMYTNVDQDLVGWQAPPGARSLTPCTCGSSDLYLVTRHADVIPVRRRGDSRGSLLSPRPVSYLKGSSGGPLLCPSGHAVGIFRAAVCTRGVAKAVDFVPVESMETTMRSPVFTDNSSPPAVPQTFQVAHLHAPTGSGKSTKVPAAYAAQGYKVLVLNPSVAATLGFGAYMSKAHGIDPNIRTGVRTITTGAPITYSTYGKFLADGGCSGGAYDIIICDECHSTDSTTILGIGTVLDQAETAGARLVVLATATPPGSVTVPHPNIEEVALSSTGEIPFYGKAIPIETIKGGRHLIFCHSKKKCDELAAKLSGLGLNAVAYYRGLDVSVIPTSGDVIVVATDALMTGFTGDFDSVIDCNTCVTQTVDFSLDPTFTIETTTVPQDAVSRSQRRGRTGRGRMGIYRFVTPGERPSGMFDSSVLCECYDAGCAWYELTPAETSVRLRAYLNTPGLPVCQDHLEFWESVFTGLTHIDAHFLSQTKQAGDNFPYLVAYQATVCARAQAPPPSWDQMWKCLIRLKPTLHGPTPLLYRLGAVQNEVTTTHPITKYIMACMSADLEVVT

[3] = target: T1, NS3hel (NS3 helicase domain); experiment: fluorescence anisotropy; pH 7.2, 2 mM MgCl2; 25 mM MOPS-NaOH pH 6.4 or 7.2, 2 mM MgCl2, 25 C; 25 nM 5-FAM-dT20 with 0-10 uM NS3hel or 0-5 uM NS3FL, 10 min (anisotropy); 1 uM protein with 0-1 uM ssDNA (Trp); settings: protein: recombinant; tags: N-terminal 6xHis-TEV, cleaved; label: 5'-carboxyfluorescein (5-FAM); single strand
NS3FL (full-length NS3) [4] = target: T2, NS3FL (full-length NS3); experiment: as above; settings: protein: recombinant; tags: C-terminal 6xHis; label: 5'-carboxyfluorescein (5-FAM); single strand

With TTTTTTTTTTTTTTTTTTTT (ssDNA) [5-FAM oligo(dT)20] the Kd [1] was ~42 nM, the Kd (NS3FL (full-length NS3) [2]) was ~28 nM and the Kd [3] was ~254 nM. It also gave a Kd (NS3FL (full-length NS3) [4]) of ~49 nM.
